Target: T1, GST-GUS (UniProt P05804 1-603, limits assumed)
T1 construct: Negative control bait; also called GST-tagged beta-glucuronidase; negative control GST-GUS; not shown: GST tag
Assay: in vitro GST pull-down on glutathione sepharose beads, immunoblot for GST and FLAG
Experimental: E. coli expressed GST-tagged bait proteins were incubated with E. coli expressed FLAG-tagged prey proteins before purification on glutathione sepharose beads and immunoblotting for GST and FLAG.
Following this growth phase, the cultures were centrifuged at 4500×g for 10 minutes, the supernatants were discarded and the pellets resuspended at 4° C. in 2.5 ml TGH Buffer (50 mM HEPES (pH7.5), 150 mM NaCl, 1% Triton-X-100, 10% Glycerol, 1 mM DTT, 1 complete EDTA-free protease inhibitor tablet (per 50 ml) (Roche 11873580001)). The bacterial suspension was then sonicated (on ice) for four bursts of ten seconds, separated by 20-second intervals, before being centrifuged at 12 000×g for 20 minutes to pellet any cellular debris. Cleared sonicates were then stored on ice while a 50% slurry of washed glutathione sepharose beads (GE Life Sciences 17-0756-01) was prepared according to the manufacturer's instructions. 20 μl of the 50% glutathione sepharose slurry was then combined with 2.5 ml of protein extract from bait protein (GST-tagged) expressing cells and 2.5 ml of protein extract from prey protein (HA-/FLAG-/HIS-tagged) expressing cells. […] After washing, proteins were eluted with 35 μl GST-elution buffer (50 mM TRIS-glycine (pH8.0), 10 mM reduced glutathione) over 30 minutes at 4° C. before being analysed by western blot analysis. […]

T1 sequence (P05804 whole entry): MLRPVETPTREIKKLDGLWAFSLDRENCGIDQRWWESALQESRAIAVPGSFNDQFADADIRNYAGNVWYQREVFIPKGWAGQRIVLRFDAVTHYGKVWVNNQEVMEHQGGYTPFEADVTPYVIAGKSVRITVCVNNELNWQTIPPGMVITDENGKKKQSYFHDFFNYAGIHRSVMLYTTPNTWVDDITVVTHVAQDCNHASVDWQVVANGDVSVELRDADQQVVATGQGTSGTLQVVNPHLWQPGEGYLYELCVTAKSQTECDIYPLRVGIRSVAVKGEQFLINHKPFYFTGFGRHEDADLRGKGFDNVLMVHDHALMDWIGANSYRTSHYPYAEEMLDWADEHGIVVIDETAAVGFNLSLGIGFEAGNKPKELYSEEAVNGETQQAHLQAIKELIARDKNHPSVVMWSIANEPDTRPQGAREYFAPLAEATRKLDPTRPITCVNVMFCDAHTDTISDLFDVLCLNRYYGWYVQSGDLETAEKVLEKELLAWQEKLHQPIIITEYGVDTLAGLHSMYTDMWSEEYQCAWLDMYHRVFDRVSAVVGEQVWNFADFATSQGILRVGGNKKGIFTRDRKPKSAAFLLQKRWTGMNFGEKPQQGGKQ

Binder	binding result
FLAG-DA1 (other, E. coli expressed prey protein; also called FLAG-tagged wild-type DA1; AtDA1; not shown: FLAG tag) MGWFNKIFKGSNQRLRVGNNKHNHNVYYDNYPTASHDDEPSAADTDADNDEPHHTQEPSTSEDNTSNDQENEDIDRAIALSLLEENQEQTSISGKYSMPVDEDEQLARALQESMVVGNSPRHKSGSTYDNGNAYGAGDLYGNGHMYGGGNVYANGDIYYPRPITFQMDFRICAGCNMEIGHGRFLNCLNSLWHPECFRCYGCSQPISEYEFSTSGNYPFHKACYRERYHPKCDVCSHFIPTNHAGLIEYRAHPFWVQKYCPSHEHDATPRCCSCERMEPRNTRYVELNDGRKLCLECLDSAVMDTMQCQPLYLQIQNFYEGLNMKVEQEVPLLLVERQALNEAREGEKNGHYHMPETRGLCLSEEQTVSTVRKRSKHGTGKWAGNITEPYKLTRQCEVTAILILFGLPRLLTGSILAHEMMHAWMRLKGFRTLSQDVEEGICQVMAHKWLDAELAAGSTNSNAASSSSSSQGLKKGPRSQYERKLGEFFKHQIESDASPVYGDGFRAGRLAVHKYGLRKTLEHIQMTGRFPV	no binding
FLAG-da1lim8 (other, E. coli expressed prey protein; It is a DA1 variant with a mutated LIM domain; also called FLAG-tagged DA1lim8; not shown: FLAG tag) MGWFNKIFKGSNQRLRVGNNKHNHNVYYDNYPTASHDDEPSAADTDADNDEPHHTQEPSTSEDNTSNDQENEDIDRAIALSLLEENQEQTSISGKYSMPVDEDEQLARALQESMVVGNSPRHKSGSTYDNGNAYGAGDLYGNGHMYGGGNVYANGDIYYPRPITFQMDFRIGAGGNMEIGHGRFLNCLNSLWHPECFRGYGGSQPISEYEFSTSGNYPFHKACYRERYHPKCDVCSHFIPTNHAGLIEYRAHPFWVQKYCPSHEHDATPRCCSCERMEPRNTRYVELNDGRKLCLECLDSAVMDTMQCQPLYLQIQNFYEGLNMKVEQEVPLLLVERQALNEAREGEKNGHYHMPETRGLCLSEEQTVSTVRKRSKHGTGKWAGNITEPYKLTRQCEVTAILILFGLPRLLTGSILAHEMMHAWMRLKGFRTLSQDVEEGICQVMAHKWLDAELAAGSTNSNAASSSSSSQGLKKGPRSQYERKLGEFFKHQIESDASPVYGDGFRAGRLAVHKYGLRKTLEHIQMTGRFPV	no binding
